From patent US20220267462A1 (HARPOON THERAPEUTICS, published 2022)
Residue numbers refer to the chain shown, from its start.

T1: human EpCAM protein (human, UniProt P16422 24-265, biotinylated in the Octet assays (site not stated))
T1 construct: also called hu EpCAM; biotinylated human EpCAM protein
T1 sequence: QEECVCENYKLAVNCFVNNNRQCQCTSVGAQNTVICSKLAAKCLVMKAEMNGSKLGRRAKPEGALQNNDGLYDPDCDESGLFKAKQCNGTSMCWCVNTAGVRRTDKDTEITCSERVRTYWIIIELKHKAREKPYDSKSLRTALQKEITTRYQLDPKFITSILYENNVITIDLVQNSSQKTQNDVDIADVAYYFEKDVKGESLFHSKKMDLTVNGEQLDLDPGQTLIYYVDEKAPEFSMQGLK

T2: cynomolgus EpCAM protein (cynomolgus, UniProt Q1WER1 27-265 (rhesus entry), limits assumed, biotinylated in the Octet assays (site not stated))
T2 construct: also called cy EpCAM; biotinylated cynomolgus EpCAM protein
T2 sequence: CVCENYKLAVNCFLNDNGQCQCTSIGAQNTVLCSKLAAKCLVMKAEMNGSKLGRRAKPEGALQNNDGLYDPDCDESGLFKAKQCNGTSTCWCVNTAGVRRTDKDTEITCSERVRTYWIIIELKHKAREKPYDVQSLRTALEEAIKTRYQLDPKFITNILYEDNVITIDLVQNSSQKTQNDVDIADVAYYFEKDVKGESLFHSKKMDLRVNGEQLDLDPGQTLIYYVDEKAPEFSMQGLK

B1: EPL31 (VHH)
VHH: QVQLQESGGGLVHTGGSLRLSCAASGDTFLRYAMGWFRQAPGKEREFVAAITWNGGNTDYAGSLKGRFTISRDNTKNTVYLQMNSLKPEDTAVYYCAADLTFGLASSHYQYDYWGQGTQVTVSS
B2: EPL55 (VHH)
VHH: B1 VHH with H13Q, T14A
B3: EPL136 (VHH)
VHH: B1 VHH with H13Q, T14P
B4: EPL57 (VHH)
VHH: B1 VHH with A24F, G62D, K87R
B5: EPL49 (VHH)
VHH: QVQLQESGGGLVQAGGSLRLSCAPSGRTSSIFGMGWFRQAPGKEREFVASINWSGGSTSYADSVKGRFTISRDNAKNEMYLQMNSLKFEDTAVYVCAAAVLTNKPSWNFWGQGTQVTVSS
B6: EPL74 (VHH)
VHH: QVQLQESGGGLVQAGGSLRLSCAASGSIFGINAMGWYRQAPGKQRESVAFITIGGNTNYLDSVKGRFTISRDNAKNTVYLQMNGLKPEDTAVYYCNTNPPLILTAGGLYWGQGTQVTVSS
B7: EPL82 (VHH)
VHH: QVQLQESGGGLVQAGGSLKLSCTASGTILSTMAWYRQAPGKQRELVATISRGGTTNYSDSVKGRFAISRDSTKNTVYLQMNSLKPEDTAVYYCNTPLTDYGMGYNWGQGTQVTVSS
B8: EPL109 (VHH)
VHH: QVQLQESGGGLVQPGGSLRLSCASSGFTLDDYTIGWFRQAPGKEREGVSCISRRDDSTYYADSVKGRFTISRDNAKNTVDLQMISLRPEDTAVYYCAATPRSYTLRCLGKFDFQGQGTQVTVSS
B9: EPL126 (VHH)
VHH: QVQLQESGGGLVQAGGSLRLSCAASGFIFRAASMGWYRQSPGNERELVATINSGGFTNYADSVKGRFTISRDNAKNTGYLQMNSLKPEDTAVYFCAATFLRSDGQPPIWGQGTQVTVSS
B10: EPL120 (VHH)
VHH: B9 VHH with M34I, G35S, K64L
B11: EPL90 (VHH)
VHH: QVQLQESGGGLVQAGGSLRLSCAASGFIFRAASMAWYRQSPGNERELVASISSGAFTNYADSVKARFTISRDNAKNTVYLQMNSLKPEDTAVYFCGATFLRSDGHHTINGQGTQVTVSS
notes: llama anti-EpCAM heavy chain only single domain antibody; tested as E. coli periplasmic extract
B12: EPL164 (VHH)
VHH: QVQLQESGGGLVQAGGSLRLSCAASGFIFRAASMDWYRQSPGTQPELVATISSTGFTNYANSVKGRFTISRDNAKNTVYLQMNSLKPEDTAVYFCGATFLRSDGQHSIYGQGTQVTVSS
B13: EPL118 (VHH)
VHH: B11 VHH with A35G, Y37F, S50T, I51V, A55D, A65G, L100V, N109Y
B14: EPL83 (VHH)
VHH: QVQLQESGGGLVQAGGSLRLSCAVSGSIFSLNTLAWYRQAPGRQRDLIARITGGGTTVYADSVKGRFTISRDNAKNTVYLQMNSLKPEDTAVYYCNLMVRHPSGSTYEYWGQGTQVTVSS
B15: EPL2 (VHH)
VHH: QVQLQESGGGLVQPGGSLRLSCAASESISSFIAVGWYRQAPGKERELVAGINRSGFTYYTDSVKGRFSISRDNAKNTVLLQMTSLKPEDTAVYYCNAGGLYFSNAYTQGDYWGQGTQVTVSS
B16: EPL43 (VHH)
VHH: B15 VHH with P14T
B17: EPL152 (VHH)
VHH: QVQLQESGGGLVQAGGSLRLSCVHSGSIFRASTMAWYRQAPGKQRELVAQIMSGGGTNYAGSVKGRFTISRDNANNTVYLQMNSLKPEDTAVYYCNAAQITSWGPKVYWGQGTQVTVSS
B18: EPL189 (VHH)
VHH: QVQLQESGGGLVQPGGSLRLSCAASGRINSINTMGWYRQAPGNQRELVAEITRGGTTNYADSVQGRYAISRDNAKNLVYLQMNSLKPEDTDVYYCNAQTFPTFSRPTGLDYWGQGTQVTVSS
B19: EPL138 (VHH)
VHH: B11 VHH with A35D, S40F, L47S, V48I, S50T, A55G, A65G
B20: EPL58 (VHH)
VHH: QVQLQESGGGLVQAGGSLRLSCAASGPIFSDTIRTMGWYRQAAGKQRELVATIASFPSRTNYVDSVKGRFTISRDIAKNTVYLQMDSLKPEDTAVYYCNVDLASIPTKTYWGQGTQVTVSS
B21: EPL15 (VHH)
VHH: QVQLQESGGGSVLAGGSLRLSCAASGFTFSSYYMSWVRQAPGKGLEWVSGIHYTGDWTNYADSVKGRFTISRDNAKNELYLEMNNLKPEDTAVYYCARGSDKGQGTQVTVSS
B22: EPL34 (VHH)
VHH: B21 VHH with L13Q
B23: EPL127 (VHH)
VHH: QVQLQESGGGLVQAGGSLRLSCAAPGFAFNDHAILWFRQAPGKEREGVSEICRDGTTYYTDSVKGRFTISSDNAKNTVYLQMNSVKTDDTAVYYCAVDRRRYYCSGNRAFSSDYYYWGQGTQVTVSS
B24: EPL117 (VHH)
VHH: QVQLQESGGGLVQAGGSLRLSCAASGNIVRMTNMAWYRQAPGKQREFVATISAGGSTTYVDSVKDRFTISRDNTKNTVYLQMNYLKPEDTAVYYCATGSILTNRGAIPGSWGHGTQVTVSS
B25: EPL10 (VHH)
VHH: QVQLQESGGGLVQAGGSLRLSCAASGSVFRANVMGWYRQAPGKQHELVARIDPGGTTTYADPVKGRFTISRDNAKKTVYLQMNSLKPDDTAVYYCNAIILLSGGPKDYWGQGTQVTVSS
B26: EPL97 (VHH)
VHH: QVQLQESGGGLVQAGGSLRLSCAASGIIFRGTTMGWFRQAPGKQRESVASISPLGTTSYSGSVEGRFTVSRDNAKNTLFLQMNSLKSEDTAVYYCNAIQVTNVGPRVYWGQGTQVTVSS
B27: EPL78 (VHH)
VHH: QVQLQESGGGLVQPGGSLRLSCATSANRFNINVMGWYRQAPGQQRELVATINIGGSTDYADSVKGRFTISRDNAKNTVYLQLSDLKPEDTAVYYCNVKLRVSGPTGPNVYWGQGTQVTVSS

Molecular target: T1, human EpCAM protein
Assay: colorimetric ELISA
Source text: (§1) A phage display library for expression of heavy variable antibody domains was constructed from circulating B cells. See van der Linden, de Geus, Stok, Bos, van Wassenaar, Verrips, and Frenken. 2000. J Immunol Methods 240:185-195.

Q: For B1, which “Human EpCAM/Control” value is on record?
A: 7

Q: With B2 as the binder, how does the “Human EpCAM/Control” value read?
A: 5

Q: B3 was tested. Which “Human EpCAM/Control” value did it give?
A: 9

Q: With B4 as the binder, how does the “Human EpCAM/Control” value read?
A: 14

Q: Which “Human EpCAM/Control” value does the source give for B5 here?
A: 8

Q: For B6, which “Human EpCAM/Control” value is on record?
A: 10

Q: With B7 as the binder, how does the “Human EpCAM/Control” value read?
A: 4

Q: For B8, which “Human EpCAM/Control” value is on record?
A: 5

Q: How did the “Human EpCAM/Control” value turn out when B9 was run?
A: 5

Q: Which “Human EpCAM/Control” value does the source give for B10 here?
A: 5

Q: With B11 as the binder, how does the “Human EpCAM/Control” value read?
A: 10

Q: How did the “Human EpCAM/Control” value turn out when B12 was run?
A: 7

Q: B13 was tested. Which “Human EpCAM/Control” value did it give?
A: 5

Q: How did the “Human EpCAM/Control” value turn out when B14 was run?
A: 3

Q: Which “Human EpCAM/Control” value does the source give for B15 here?
A: 15

Q: B16 was tested. Which “Human EpCAM/Control” value did it give?
A: 13

Q: For B17, which “Human EpCAM/Control” value is on record?
A: 4

Q: Which “Human EpCAM/Control” value does the source give for B18 here?
A: 12

Q: How did the “Human EpCAM/Control” value turn out when B19 was run?
A: 3

Q: Which “Human EpCAM/Control” value does the source give for B20 here?
A: 8

Q: B21 was tested. Which “Human EpCAM/Control” value did it give?
A: 8

Q: Which “Human EpCAM/Control” value does the source give for B22 here?
A: 10

Q: B23 was tested. Which “Human EpCAM/Control” value did it give?
A: 5

Q: B24 was tested. Which “Human EpCAM/Control” value did it give?
A: 4

Q: How did the “Human EpCAM/Control” value turn out when B25 was run?
A: 12

Q: B26 was tested. Which “Human EpCAM/Control” value did it give?
A: 8

Q: For B27, which “Human EpCAM/Control” value is on record?
A: 17

Molecular target: T2, cynomolgus EpCAM protein
Assay: colorimetric ELISA
Source text: as §1

Q: For B1, which “Cynomolgus EpCAM/Control” value is on record?
A: 6

Q: With B2 as the binder, how does the “Cynomolgus EpCAM/Control” value read?
A: 7

Q: With B3 as the binder, how does the “Cynomolgus EpCAM/Control” value read?
A: 13

Q: With B4 as the binder, how does the “Cynomolgus EpCAM/Control” value read?
A: 27

Q: B5 was tested. Which “Cynomolgus EpCAM/Control” value did it give?
A: 4

Q: How did the “Cynomolgus EpCAM/Control” value turn out when B6 was run?
A: 5

Q: How did the “Cynomolgus EpCAM/Control” value turn out when B7 was run?
A: 5

Q: How did the “Cynomolgus EpCAM/Control” value turn out when B8 was run?
A: 2

Q: How did the “Cynomolgus EpCAM/Control” value turn out when B9 was run?
A: 4

Q: B10 was tested. Which “Cynomolgus EpCAM/Control” value did it give?
A: 4

Q: For B11, which “Cynomolgus EpCAM/Control” value is on record?
A: 10

Q: How did the “Cynomolgus EpCAM/Control” value turn out when B12 was run?
A: 34

Q: B13 was tested. Which “Cynomolgus EpCAM/Control” value did it give?
A: 4

Q: For B14, which “Cynomolgus EpCAM/Control” value is on record?
A: 2

Q: With B15 as the binder, how does the “Cynomolgus EpCAM/Control” value read?
A: 24

Q: Which “Cynomolgus EpCAM/Control” value does the source give for B16 here?
A: 27

Q: How did the “Cynomolgus EpCAM/Control” value turn out when B17 was run?
A: 4

Q: With B18 as the binder, how does the “Cynomolgus EpCAM/Control” value read?
A: 8

Q: How did the “Cynomolgus EpCAM/Control” value turn out when B19 was run?
A: 3

Q: With B20 as the binder, how does the “Cynomolgus EpCAM/Control” value read?
A: 4

Q: B21 was tested. Which “Cynomolgus EpCAM/Control” value did it give?
A: 35

Q: How did the “Cynomolgus EpCAM/Control” value turn out when B22 was run?
A: 36

Q: Which “Cynomolgus EpCAM/Control” value does the source give for B23 here?
A: 11

Q: How did the “Cynomolgus EpCAM/Control” value turn out when B24 was run?
A: 3

Q: B25 was tested. Which “Cynomolgus EpCAM/Control” value did it give?
A: 9

Q: Which “Cynomolgus EpCAM/Control” value does the source give for B26 here?
A: 5

Q: With B27 as the binder, how does the “Cynomolgus EpCAM/Control” value read?
A: 11
